The source of these data is patent US20240101654A1 (NEURIMMUNE, published 2024).

The assay has as its target AD-associated Tau in brain extracts of patients with AD (human, UniProt P10636-8 2-441, limits assumed, pathologically modified (sites not given)). The assay can be described thus: cell-based or functional assay.

Chain of AD-associated Tau in brain extracts of patients with AD (P10636 other isoform, or with tags, fused parts or gaps limits assumed): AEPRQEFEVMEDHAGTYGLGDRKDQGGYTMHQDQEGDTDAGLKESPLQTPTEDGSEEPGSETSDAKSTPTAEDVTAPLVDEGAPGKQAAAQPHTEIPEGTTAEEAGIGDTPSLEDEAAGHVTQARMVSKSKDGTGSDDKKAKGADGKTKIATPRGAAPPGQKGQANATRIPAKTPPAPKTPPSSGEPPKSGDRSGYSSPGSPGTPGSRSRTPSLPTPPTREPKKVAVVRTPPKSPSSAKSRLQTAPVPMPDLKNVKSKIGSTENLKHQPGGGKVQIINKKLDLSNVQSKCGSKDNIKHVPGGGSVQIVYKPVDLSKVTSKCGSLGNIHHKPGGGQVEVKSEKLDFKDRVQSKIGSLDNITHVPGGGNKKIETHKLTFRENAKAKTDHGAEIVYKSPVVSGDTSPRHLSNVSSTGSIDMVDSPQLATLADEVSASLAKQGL

B1: NI-502.8H1 (antibody, V domains shown)
VH: EVQLVESGGGLVQPGGSLRLSCAASGFTFSIYTMSWVRQAPGKGLEWVSAILSDGSTYYADSVEGRFTISRDNSKTTLYLQMNSLTAEDTAVYYCTKRVEGSFRGWGQGTLVTVSS
VL: EIVMTQSPGTLSLSPGESATLSCRASQSVSTTYLAWYQQKPGQAPRLLIYGASSRATGIPDRFSGSGSGTDFTLTISRLEPEDFAVYYCQQYGGSRLITFGQGTRLEIK
As to B1, the “IC50 of Tau aggregation (FRET) in HEK293T Tau biosensor cells seeded with immunodepleted AD brain homogenate” value came to 7.1 µg/mL.

B2: NI-502.4P3 (antibody, V domains shown)
VH: EVQLVQSGAEVKKPGESLKISCKVSGYDFSKYWIGWVRQMPGKGLEWMGLIYPGDSDTRYSPSLEGQVSISADKSISAAYLQFSSLKASDSAMYYCVRKGYSAYLGGWFDPWGQGTLVTVSS
VL: DIQLTQSPDSLAASLGERVTINCRSSQNIFYNSNNKNFLAWYQQKAGQSPKLLIYWASTRESGVPDRFSGSGSGTDFTLTISGLQAGDVAVYFCQQYFTDAPTFGGGTKVEIK
As to B2, the “IC50 of Tau aggregation (FRET) in HEK293T Tau biosensor cells seeded with immunodepleted AD brain homogenate” value was determined as 6.5 µg/mL.
